Consider two substances from article PMC10047488.

In assay [1] the target is Gal4 DNA-binding domain fusion of parkin fragment P2 (amino acids 141-326) (human) (UniProt O60260). Briefly: two-hybrid; yeast two-hybrid based growth assay: diploids spotted in serial dilution on SD/-Leu/-Trp or SD/-Ade/-His/-Leu/-Trp plates with 0, 1, 5 or 10 uM PMN (peiminine), 30 °C, 3 days; and OD600 in liquid selective medium every 12 h for 48 h.
Assay [2] concerns the target Gal4 DNA-binding domain fusion of HSD11B1L-181 fragment H2 (amino acids 92-181) (human). Described as above.

Sequence of Gal4 DNA-binding domain fusion of HSD11B1L-181 fragment H2 (amino acids 92-181) (human) (Q7Z5J1 92-181): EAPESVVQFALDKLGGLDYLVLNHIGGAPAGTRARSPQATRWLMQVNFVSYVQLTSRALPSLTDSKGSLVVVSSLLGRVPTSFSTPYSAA

In the case of “Gal4 activation domain fusion of HSD11B1L-181 fragment H2 (amino acids 92-181) (domain or fragment)”, in assay [1], the reduction of the growth rate in selective medium after 48 h, 10 uM PMN group against the DMSO group is 95%.

In assay [2], “Gal4 activation domain fusion of parkin fragment P2 (amino acids 141-326) (from UniProt O60260-1 141-326) (domain or fragment)” gave a reduction of the growth rate in selective medium after 48 h, 10 mM PMN group against the DMSO group of 93%.
